# Reference: a protein production outcome set (Wang et al. 2014)
# Experiment: label from the status in PepcDB records
# 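Also: failed if final PepcDB status was selected cloned or expressed and not failed if soluble or beyond.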
row,Sequence,protein production
1,MAIFMSYVLLGLSLAAPIGPVNAAQLDRGIKNGFFHAWLVGLGAITADVIYMLLVFFGLVHFLQLPFMQTFLWLFGFFVLVYTGIETISSVNHLKEATNMRTSETYRKSFIYGFLMSISNPLTILFWLGIFGSVLAKTASVYGPAQLVFYSSAILIGLLLWDVAMAGIASGARHMLTPARLKIVSILSGLTLIGFGVYFGLQACRVLFG,failed
2,MSNAVSAENEGPGAIPGLLHLSGPCVYVAGSQGVSMTQTMPIGAVIAPVTPLQQNCTIVWCAKTLKAAVIDPGGEVDRLLKAIADKGLTLEKIWITHGHMDHAGGAAELKARTGVPIEGPHKDDQFWIDRIQDSGEMYGMPEARIFVTDRWLDDGDTVTLGETEFEVFHCPGHTPGHVVFFHRETKFAQVGDVLFQGSIGRTDFPMGNHQDLIDSITQKLWPLGEDVRFVPGHGPMSTFGAERRGNPFVGDRVVAAMKAQGAGFTIPKNNSPG,failed
3,MKKLDASTAVSLTGMPELERIVESLCTPESYEAVYHQSLHGSPMPSLEALTELMARLRAALFPGYFGASNIVLESMRYHLAANLDSIYRILAEQVRRGGCFACADYATDCQNCESHSQETAMEFMRALPRIRQLLATDVKAAYEGDPAAKSPGETIFCYPSIYAMIHHRIAHELYRLDVPVIPRIISEMAHSRTGIDIHPGATVGEEFFIDHGTGVVIGETCIIGRGCRLYQGVTLGALSFPKDGGGALIKGIPRHPILQDGVTVYAGATILGRVTIGAGAIVGGNVWVTHDVAPGAKVVQQKSSPPAAEDRMVGTKNGTPKA,failed
4,MSKKETDLGRDSIGKLLFKLAMPAIIAQLVNVLYNIVDRMFIGRLQSGDMAMAGVGVAFPIIMIVAAFSGLVGMGGAPLAAIKMGEKKKEDAEEIMTNSFSALIGLALFLTVFFFIFKEPILWAFGASDATIGYALDYLGIYLIGTIFVQIALGMNSFINTQGFAKVGMITVMVGAVINIVLDPILIFGFNMGVKGAALATIIGQCASAIWVLYFLFEKQSILRIRKKFLKPKLKILFSIMALGVSPFIMQATESLVIISMNNNLLKYGGDLAVGAMTIMSSVMQIILLPLMGLSQGAQPIISYNYGANKVYRVKKAFKLLLVSSMVFTTIMWSALMMLPDVFVKIFNSNNPQLMEITSWSIKIYFAGILLFGAQVACQQTFLALGQAKISLILALLRKIVLLIPFIYVLPMVFENKLMGVLMAEPFADIIAALSTVTCFIVFYKKHLSQGLEEEIKVNS,failed
5,MARCAVFLEELWFALFAWVPTVLGTAVRLVAWRPLFRLLGGVCGKVRFGQSLTLQGAGHMRLADGVRLGKGCHLYARTGELVMGENAALNINVVVDADGGTVRIGAHATVGPGTVIRAANHRFDRLDTPIMFQGHEYGEVVIDDDVWIAANCTVVPGVHIGRGAVVGAGAVVTKDVEPYTVVAGVPARFIRRRGPAE,failed
6,MRIQTTFSRKLVLMSLLAVFCGCADVHSSVKGDAMVEQAKGGVLREIKVAETGEGARVVLSADRPLAYTFYKTADPPKAVIDLARTEPGAIASPMDVNSDTIRRIETVRYGEGATAMTRVEVYFTRDTEANATIDASDKGMLVLAVARPVAPAASVAVEAAPAAGQAGESSTGAPVAVAAAPAVAPAPVAVEPQAPIAPVVAPQTGPPVIKAIEAQNGYLVIETSGEIKDFKFFRLAKPDRLVVDISDARLGINSKAIPLNALGVGMARIGAYPDKVRIVLDAAGGTLSPLNVTKGAAGLIVAPADKVVDVPRAAAPPQPSASASQARQPEAVKSAEPAKGLTPAVDAIEFKVLDGTSRITVAVTGACANDKPVKSADGFSVTLRNCILPKKLQRHLDTGAFASVVQKVTPYQVKTKGRSDVKIQVQLRQPASYDVRRDGDLLQVSVRNPEGFEPPVADVPASPTLQDGMDQAAVRQKEPSRETDPLAGVAQSGGTKKAYTGRRVTLEFSDADIRKIFQLIAEVSNLNFLVGDDVTGTISLKLVNVPWDQALDVILENKGLGMQRDGNIVQIRPKSKIQTLADEEQALKRAKERGMELKTEVFDINFAAVGDIVSQFNAVKSERGTISQDARTNRVIVKDIEPALAEMRILLKNLDLPEKQVLIEARIVEATSTFTRDLGVQWGIHSNDSGADIIRSVDAGFGGIVTPPPASGFPAATSSGGAVGISFAKMGSLQVDLRLSAAAVAGLVKIVSTPKVVTLNNKAAKISQGQSIPYQTTSAEGTKTEFVEAALTLEVTPHITADGSVSMKIKASNNSAGTGSPPPINKKEATTELLVKNGETTVIGGIYVDSDTDEDRGVPFLMDIPVLGWLFKSNTKNKTKTELLIFITPKIVS,failed
7,MTQSPYWQRIAAKAQAAQRPFFSLAPMEAVTGSVFRRVVMRAAAPDVFYTEFTNALSITHPKAKFTTRGRLYVDEAESPRPIVQLWGNSGEDFTKAAHEVKNQGYQAIDLNMGCPDMAVIKNHSGSDLIRHFDRAKEVIEGARQAELPVSVKTRLGFDDVHEYETWIPFLLQQQVPVLTVHVRTKMEMSKVPAHYELIDNLVQMRDTLAPATLLQINGDILDYQAGLKLAKAHPGVDGIMIGRGIFQNPYAFEPIPQPHSTRDMLELLRYQVDLYDQFIGLGLQGHFAPLQRFFKIYVRGMRHAAELRNELMQTKTTDDVRAIIDRLEAKLPAD,failed
8,MGFYQGPDNRKITGGLKGKHRDKRKYEIGNPPTFTTLSAEDIRIKDRTLGGNFKVRLKYTTTANVLDPATNTAKKVKILEILETPANKELARRGIIIRGAKIRTEAGLAVVTSRPGQDGVINAVLLKNESQRSLEHHHHHH,failed
9,MNNLINNPLFGILLTLFAFEIGMTIYKKTKIPLLNPLLIAIALVIAVLVSCHISFETYNIGGSFINAFLGPATVILAVPLYKQLQLLKNHFVPIMTGIIVGSFASMCCVIIMGYFLGVNHELIASLVPKSVTTPIGVEVASGLGGIPSITVIAVIITGITGAIIAPMVCKLLKIDHEVAMGVSMGTAAHAVGTTKALEIGETHGAMSSLSIGVAGLITVFLAPPIYMLSALILKFV,failed
10,MTKYLKYFIISMFRSRGLIFFGLFLILLSLIPNMLSISDSAHYSLKVLNHASRWYGLAILISFSIVSGTLAQMIYFSSSAIIYLHRHSKLSINRYYFESTLGAMVIFGIYALIILFATIVGYSYVSKNIIFPKKLLMLVLFTMLAGLFYFSLSFSLQAIATLLKKAHLIEYLAYFLISLTFLLGYLQVNTSLDVSLLVFLSPLNSILSLLIYGYSGILSFSVEFLLVTSLFYITVLQLISVWSLKRLKEVRIEDKLI,failed
11,MEITTLQIVLIFIVACVSGMGSILDEFQFHRPLVACTLIGAVLGDLKTGIIIGGTLEMIALGWMNIGAAVAPDAALASIISTILVIAGGQGIGAGIALAIPLAAAGQVLTIIVRTITVAFQHAADSAAERGNLTAISWIHVSALLLQAMRIAIPAVIVAVSVGTDTVHALLNSIPDVVTNGLNIAGGMIVVVGYAMVINMMRAGYLMPFFYLGFVTAAFTEFNLVALGVIGIVMAVLYIQLSPKYNKVQGQSVTSGNNGLDNELD,failed
12,MLKIKILIIIFCCIGVVKAQTVIPPSSETPPGWIYYDGDEFNGDVIDSRYWGIYGSPKVGRPTYNQENKAMLQTYRPEQVFIETLPTGEKICRIRSFKSKDAPSPVHPSVKSKTGWWSGALSSRDSDTEKYYPLFCRIEIKAKVPYLYGLWNALWLRHYKGAGVAEIDILEFFTKAFGENPYPAKANQTLHLFNSETQKLGINLPKGQIRYTEIGDDKPGDNFHVYAVQIDPDPVDNNHAIITFLIDNKVNYQIHTRTQLGDAYTDFITKARKEDRLDRVWDIAITGQVGAFDKLDVGYPAEELQQFDFDIDWIRVYVRDPHTRIVGNSKLPHTPEADSFVKDLLSRMTVEEKIGQLSQYVGRTLLTGPESEYLSDSLIARGLVGSVLNISGAKTLRDLQEKNMRHSRIKIPILFGMDVIHGYKTIFPTPLAESCSWDLAAIERAAKIAAIESSAAGLHWTFAPMVDIARDARWGRVVEGAGEDTYLGSEIAKARVNGFQWNLWENNSVLACAKHWVAYGLPQAGRDYAPVDMSERTLFDTYLPPFKACIDAGVLTFMSAFNDINGIPASAHPFLLKDLLRGQWNFNGFVVSDWEAVKQLVAQGVAEDDKDATRLAFNSGIDMDMTDGLYNKYMKELIEAGKISMEDVDNSVSRILHIKYALGLFVDPYKFCNEEYESQTIMKKEFLDAALDMAHKSAVLLKNDNHTLPLAKNVRSIAVVGPLADNQTELLGSWRARGEDRHVTTVLQGIKNKIGGNKTKVGYARGCDFDGEDKSGFKEAVKLASKSDMVIAVVGEKALMSGESRSRAQLDLPGVQEELIKELVATGKPVVVVLMNGRPLSIEWVDKNVSAILETWFLGTSAGTAIADILFGDYNPSGRLTISFPRVEGQVPIYYNYKKSGRPGDMLHSSTTRHIDVPNAPLYPFGYGLSYTTFSYSAPQSTQKEYTRQETISVSVTVTNTGDRDGEETVQLYVNDKVASVVRPVKELKAFKKIFLKAGESKTVQFDISPLALGFYDAAMNYVVEPGEFEIMTGCNSNDLQTISVKLIN,failed
